The values below come from patent publication US20180334496A1 (KODIAK SCIENCES, published 2018).

This assay has as its target T1, human Complement Factor D (CFD), purified from human serum (human, UniProt P00746 26-253).
T1 construct: serum purified (CompTech A136); also called serum purified CFD; hCFD-Comptech
Kind of assay: SPR MX96, mAbs amine-coupled, CFD injected.

T1 sequence (P00746 26-253): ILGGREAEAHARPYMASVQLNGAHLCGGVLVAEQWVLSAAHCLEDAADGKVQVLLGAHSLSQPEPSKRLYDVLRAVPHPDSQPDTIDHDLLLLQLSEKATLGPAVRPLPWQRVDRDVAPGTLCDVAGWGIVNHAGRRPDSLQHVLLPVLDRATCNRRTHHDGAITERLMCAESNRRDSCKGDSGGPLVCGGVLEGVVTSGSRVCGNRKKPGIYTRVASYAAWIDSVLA

B1: KCD104 (antibody, V domains shown)
VH: QVQLQQPGAELVRPGTSVKLSCKASGYTFTSYWMHWVKQRPGQGLEWIGVIDPSDSYTYYNQKFKGKATLTVDTSSSTAYMQLSSLTSEDSAVYYCARNGYDGAMDYWGQGTSVTVSS
VL: EIQMTQTTSSLSASLGDRVTISCRASQDISNYLNWYQQKPDGTVKLLIYYPSRLHSGVPSRFSGSGSGTDYSLTISNLEQEDFATYFCQQGNTLPYTFGGGTKLEIK
For B1, binding was put at a Kd of 1.58 nM.

B2: KCD214 (antibody, V domains shown)
VH: EVQLQQSVAEFVRPGASVKLSCTASGFNIKNTYMHWVKQRPEQGLEWIGRIDPANGNTEYAPKFQGKATITADTSSNTAYLQLSSLTSEDTAIYYCALYDYDGYWGQGTTLTVSS
VL: EIVLTQSPALMAASPGEKVTITCRVSSSISSSSLHWYQQKSGTSPKPWIYGTSNLASGVPVRFSGSRSGTSYSLTISSMEAEDAATYYCQQWSDYPWTFGGGTKLEIK
B2 returned a Kd of 1.56 nM.

B3: KCD208 (antibody, V domains shown)
VH: EVQLQQSVAELVRPGASVKLSCTVSGFNIKNTYMHWVKQRPEQGLEWIGRIDPANGDTTYAPKFQGKATITADTSSNSAYLHLSRLTSEDTAIYYCSLYDYDGYWGQGTTLTVSS
VL: EIVLTQSPALMAASPGEKVTITCSVSSSISSSSLHWYRQKSGTSPKPWIYGTSHLASGVPVRFSGSGSGTSYSLTISSMEAEDAATYYCQQWDTYPWTFGGGTKLEIK
In turn, B3 returned a Kd of 2.55 nM.

B4: KCD019 (antibody, V domains shown)
VH: QVQLQQSGAELARPGASVKMSCKASGYTFATYTIHWVKQRPGQGLEWIGYLNLRNDYTHYNQKFRDKAALTADKSSSTAYMQLSSLTSEDSAVYNCAFRLGNDRQGWYFDVWGAGTTVTVSS
VL: DIVMTQAHRFMSTSVGDRVIISCKASQDVGTAVAWYQQTPGQSPKILIYWTSTRHTGVPDRFTGSRSGTDFTLTISNVQSEDLADYFCQQYTTYPLTFGGGTKLEIK
With B4, the dissociation constant Kd was 7.24 nM.

B5: KCD128 (antibody, V domains shown)
VH: QVQLQQPGAELVRPESSVKLSCKASGYTFTSYWMDWVMQRPGQGLEWIGNIYPSGSETHYNQKFKDKATLTVDKSSTTAYMQLSSLTFEDSAVYYCARSGFIGSRYLYYFDYWGQGTTLTVSS
VL: DIVMTQSHKFMSTSVGDRVTITCKASQDVSNAVAWYQLKPGQSPKLLIYSASYRYTGVPDRFTGSGSGTDFTFTISSVQAADLAVYYCQQHYITPYTFGGGTKLEIK
Turning to B5, binding was put at a Kd of 14 nM.

B6: KCD050 (antibody, V domains shown)
VH: QVQLKESGPGLVAPSQSLSITCTVSGFSLNSYGVQWVRQPPGQGLEWLVVIWRDGTITYNSALKSRLSINKDNSKSQVFLKMNSLQTDDTAMYYCGRTSHYGNFNYYVMDYWGQGTAVTVSS
VL: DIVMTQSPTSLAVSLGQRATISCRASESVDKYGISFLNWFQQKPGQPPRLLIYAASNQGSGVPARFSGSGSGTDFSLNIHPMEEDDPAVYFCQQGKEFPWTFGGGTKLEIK
As for B6, the Kd is 1.96 nM.

B7: KCD052 (antibody, V domains shown)
VH: QVQLKESGPGLVAPSQSLSITCTVSGFSLNSYGVQWVRQPPGQGLEWLGVIWRDGSITYNSALKSRLSIRKDNSKSQVFLKMNSLQTDDTAMYYCGRTSHYGNYNYYVMDYWGQGTAVTVSS
VL: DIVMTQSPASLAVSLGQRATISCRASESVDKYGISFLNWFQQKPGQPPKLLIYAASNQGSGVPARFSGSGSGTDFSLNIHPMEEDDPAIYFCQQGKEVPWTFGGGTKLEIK
Regarding B7, binding was put at a Kd of 3.07 nM.

B8: KCD122 (antibody, V domains shown)
VH: EVQLQQSGPELVKPGASVKISCKASGYTFTDYYKNWMRQRHGESLEWIGDINPNNGDANYNQKFKGKATLTVDKSSSTAYMELRSLTSEDSAVYFCAREGPSFAYWGHGTLVTVSA
VL: DVLMTQTPLSLPVSLGDQASISCRSSQTIVHSNGDTYLEWYLQKPGQSPNLLIYKVSNRFSGVPDRFSGSGSGTDFTLKISRVEAEDLGVYYCFQGSHVPPTFGGGTKLEIK
Molecule B8 returned a Kd of 1.44 nM.

B9: KCD118 (antibody, V domains shown)
VH: EVQLQQSGPELVKPGASVKISCKAFGYTFTDYYKNWMRQRHGESLEWIGDINPNSGDANYNQKFKGKATLTVDKSSSTAYMELRSLTSEDSAVYYCAREGPSFAYWGHGTLVTVSA
VL: DVLMTQTPLSLPVSLGDQASISCRSSQTIVHSNGDTYLEWYLQKPGQSPNLLIYKVSNRFSGVPDRFSGSGSGTDFTLKISRVEAEDLGIYYCFQGSHVPPTFGGGTKLEIK
With B9, binding was characterised by a dissociation constant (Kd) of 0.757 nM.

B10: KCD121 (antibody, V domains shown)
VH: EVQLQQSGPELVKPGASVKISCKASGYTFTDYYKNWMRQRHGESLEWIGDINPNNGDTSYNQKFRGKATLTVDKSSSTAFMELRSLTSEDSAVYYCAREGPSFAYWGQGTLVTVSA
VL: DVLMTQTPLSLPVSLGDQASISCRSNQTIVHSNGDTYLEWYLQKPGQSPNLLIYKVSNRFSGVPDRFSGSGSGTDFTLRISRVEAEDLGVYYCFQGSHVPPTFGGGTKLEIK
On to B10, for which the Kd is 1.8 nM.

B11: KCD123 (antibody, V domains shown)
VH: EVHLQQSGPELVKPGASVKISCKASGYTFTDFYKNWMRQRHGESLEWIGDINPNNGGTNYNQKFKGKATLTVDKSSSTAYMELRSLTSEDSAVYYCAREGPSFAYWGQGTLVTVSA
VL: DVLMTQTPLSLPVSLGDQASISCRSSQTIVHSNGDTYLEWYLQKPGQSPNLLIYKVSNRFSGVPDRFSGSGSGTDFTLKISRVEAEDLGVYYCFQGSHVPPTFGGGTKLEIK
B11: the Kd was determined as 2.77 nM.

B12: KCD003 (antibody, V domains shown)
VH: EVQLQQSRPELVKPGASVKIFCKASGYTFTDYYMNWMRQRHGETLEWIGDINPNNGDPSYNQKFKDKATLTVDKSSSTASMELRSLTSDDSAVYYCAREGPSFAYWGQGTLVTVSA
VL: DVLMTQTPLSLPVSLGEQASISCRSSQTIVHSNGDTYLEWYLQKPGQSPNLLIYKVSNRFSGVPDRFSGSGSGTDFTLKISRVEAEDLGVYYCFQGSHVPPTFGGGTKLEIK
Consider B12, for which binding was characterised by a dissociation constant (Kd) of 1.05 nM.

B13: KCD038 (antibody, V domains shown)
VH: EVQLQQSGPELVKPGTSMKISCKASGYSFADYTMNWVKQSHGKSLEWIGLINPYNGGTSYNQKFMGKATLTVDKSSSTAYMELLSLTSEDSAVYYCARWGTYSHNYDYAMDYWGQGTSVTVSS
VL: DVVMTQTPLSLPVSLGDQASISCRSSQSLVHSNGNTYLYWYFQKPGQSPKFLIYKVSNRFSGISDRFSGSGSGTDFTLKISRVEAEDLGVYFCSQSTHVPPFTFGSGTKLEIK
With B13, the Kd was 37.2 nM.

B14: KCD039 (antibody, V domains shown)
VH: EVQLQQSGPEMVKPGASMKISCKASGYSFADYTLNWVKQSHGKSLEWIGLINPYNGGTSYNQKFMGKATLTVDKSSSTAYMELLSLTSEDSAVYYCTRWGTYSHNYDYAMDYWGQGTSVTVSS
VL: DVVMTQTPLSLSVSLGDQASISCRSSQSLVHSNGNTYLYWYLQKPGQSPKLLIYKVSNRFSGITDRFSGSGSGTDFTLKISRVEAEDLGVYFCSQSTHVPPFTFGSGTKLEIK
For B14, the dissociation constant Kd was determined as 52.5 nM.

B15: KCD002 (antibody, V domains shown)
VH: EVKLVESEGGLVQPGSSMKLSCTASGFTFSDYYMAWVRQVPEKGLEWVGNINYDGSSTYYLDSLKSRFIISRDSAKNILYLQMSSLKSEDTATYFCARGEDFYLYAMDYWGQGTSVTVSS
VL: DIQMTQSPASLSASVGETVTITCRASENIHSYLAWYQQKQGKSPQLIVYNTKTLAEGVPSRFSGSGSGTQFSLKINSLQPEDFGSYYCQHHYGIPPTFGGGTKLEIK
On to B15, for which binding was put at a Kd of 0.132 nM.

B16: KCD133 (antibody, V domains shown)
VH: EVQLVESGGGLLQPKGSLKLSCAASGFTFNTYAMNWVRQAPGKGLEWVARIRSKSSNYATYYADSVKDRFTISRDDSQSMFYLEMNNLKTEDTAMYYCVRDRGYYYVMDYWGQGTSVTVSS
VL: DIVLTQSPASLAVSLGQRATISCRASESVEYYGTSLMQWYQQKPGQPPKLLINAASNVESGVPARFSGSGSGTDFSLNIHPVEEDDIAMYFCQQSRKVPWTFGGGTKLEIK
B16 gave a Kd of 11.5 nM.

B17: KCD220 (antibody, V domains shown)
VH: QVQLQQSGAELMEPGASVKLSCKATGYTFTGYWIEWVKQRPGHGLEWIGETLPGSDSNNYNEKFKGKATFTADTSSNTAYMQLSSLTTEDSAIYYCARDYSNYWYFDVWGTGTTVTVSS
VL: DIQMTQTTSSLSASLGDRVTISCRASQDISNYLNWYQQKPDGTVKLLIYYTSNLHSGVPSRFSGSGSGTDYSLTISNLEQEDIATYFCQQDSKHRTFGGGTKLEIK
B17 displayed a Kd of 0.0535 nM.

B18: KCD014 (antibody, V domains shown)
VH: EVKLVESGGGLVQPGGSLKLSCAASGFTFSSYIMSWVRQTPEKRLEWVAYITNGGGNTYYPDTIKGRFTISRDNAKNTLYLQMSSLKSEDTAMYYCARHGTGYAMDYWGQGTSVTVSS
VL: EIVLTQSPTTMAASPGEKITITCSASSSISSNYLHWYQQKPGFSPKLLIYRTSNLASGVPARFSGSGSGTSYSLTIGTMEAEDVATYYCQQGSSIPLTFGAGTKLELK
Turning to B18, the equilibrium dissociation constant (Kd) worked out at 21.8 nM.

B19: KCD137 (antibody, V domains shown)
VH: EVQLVESGGDLVKPGGSLKLSCAASGFTFSGYGMSWVRQIPDKRLEWVAISSRDNSFTYYPDSVKGRFTISRDNAKNTLYLQMSSLKSEDTALYFCTRHPYLPTGGYVMDYWGQGTSVTVSS
VL: DIVMTQSHKFMSTSVGDRVSITCKASQDVGTAVAWYQQRPGQSPKLLIYWASTRHTGVPDRFTGSGSGTDFTLTVSNVQSEDLADYFCQQYTSYPLTFGAGTKLELK
The molecule B19 yielded an equilibrium dissociation constant (Kd) of 0.504 nM.

B20: KCD017 (antibody, V domains shown)
VH: DVQLQESGPDLVKPSQSLSLTCTVTDYSITSGYSWHWIRQFPGNKLEWLGYIHSSGNTNYNPSLKSRFSITRDTSKNQFFLQLNSVTSEDTATYYCALHYYGSSFGWYFDVWGAGTTVTVSS
VL: DIVMTQSHKFMSTSVGDRVYITCKASQDVGTAVAWYQQTSGQSPKLLIYWASTRHTGVPDRFTGSGSGTDFTLTLSNVQSEDLADYFCQQYTSYPLTFGAGTKLELK
On to B20, for which the affinity, expressed as Kd, was 7.85 nM.

B21: KCD070 (antibody, V domains shown)
VH: EIQLQQTGPELVKPGASVKISCKASGYSFTDYIILWVKQSHGKSLEWIGNINPYYDYTSYNLKFKGKATLTVDKSSSTAYMQLNSLTSEDSAVYYCARSDGYYGGDYWGQGTSVTVSS
VL: DIVMTQSHKFMSTSVGDRVSITCKASQDVGTAVAWYQQKPGQSPKLLIYWASTRHTGVPDRFTGSGSGTDFTLTINNVQSEDLADYFCQQYSSYPWTFGGGTTLEIK
B21: the affinity, expressed as Kd, was 3.83 nM.

B22: KCD132 (antibody, V domains shown)
VH: QVQLQQSGPELVKPGASVKISCKASGYSFTDYYINWVKQRPGQGLEWIGWIFPGSGSTYYNEKFKGKATLTVDKSSSTAYMLLSSLTSEDSAVYFCARTGYYSNLYAVDYWGQGTSVTVSS
VL: DIQMTQSPASLSVSVGETVTITCRASENIYSNLAWYQQKQGKSPQLLVYVATNLADGVPSRFSGSGSGTQYSLKINSLQSEDFGNYYCQHFWGTPYTFGGGTKLEMR
As for B22, the Kd came to 2.61 nM.

For orientation: Kd means the concentration at which binding is half-saturated. A lower Kd goes with higher affinity.
